Measured values reported in patent publication US20250302016A1, “GENETICALLY MODIFIED NON-HUMAN ANIMAL WITH HUMAN OR CHIMERIC GENES” (Biocytogen Pharmaceuticals (Beijing) Co., Ltd., priority 2022, published 2025).

Test system: IL2 signaling pathway (STAT5 phosphorylation) in mouse splenocytes
Assay: Flow cytometry detection of pSTAT5 expression in T cells and NK cells after IL2 stimulation, IL2RB/IL2RG/IL15/IL15RA four-gene humanized mice
Format: cell-based
Conditions: for pSTAT5 expression (CD4+ T cell) / pSTAT5 expression (CD8a+ cell) / pSTAT5 expression (NK1.1+ cell): splenocytes, 10 μg/mL IL2
Method: The IL2 and IL15 signaling pathways in IL2RB/IL2RG double-gene humanized mice were detected by flow cytometry. Specifically, three 6-week old female C57BL/6 wild-type mice (+/+), three IL2RB/IL2RG double-gene humanized heterozygous mice (H/+; H/+), and three IL2RB/IL2RG double-gene humanized homozygous mice (H/H; H/H) were selected. […] No primary antibody was added to the corresponding secondary antibody control groups.
The IL2 and IL15 signaling pathways in IL2RB/IL2RG/IL15/IL15RA four-gene humanized mice were detected by flow cytometry. […] The cells were stained with: Brilliant Violet 421™ anti-mouse NK-1.1 Antibody, APC anti-mouse CD4 Antibody, and/or Alexa Fluor 700 anti-mouse CD8a Antibody, and then subjected to flow cytometry analysis.

[1] = IL2RB/IL2RG/IL15/IL15RA four-gene humanized homozygous mice (H/H)

B1: mIL2: Biotinylated Mouse IL-2 Protein, purchased from Kactus Biosystems (protein, UniProt P04351 21-169, looked up)
Interleukin-2: APTSSSTSSSTAEAQQQQQQQQQQQQHLEQLLMDLQELLSRMENYRNLKLPRMLTFKFYLPKQATELKDLQCLEDELGPLRHVLDLTQSKSFQLEDAENFISNIRVTVVKLKGSDNTFECQFDDESATVVDFLRRWIAFCQSIISTSPQ
modifications: biotinylated
notes: Biotinylated Mouse IL-2 Protein, purchased from Kactus Biosystems
pSTAT5 expression (CD4+ T cell) [1]: 5.3%
pSTAT5 expression (CD8a+ cell) [1]: 12.5%
pSTAT5 expression (NK1.1+ cell) [1]: 70.7%
phosphorylated expression of STAT5 after stimulation (in words) (splenocytes of +/+ and four-gene humanized homozygous (H/H) mice, 10 μg/mL): phosphorylated expression of STAT5 was detected
pSTAT5 expression (CD4+ T cell) (wild-type C57BL/6 mice (+/+)): 16.6%
pSTAT5 expression (CD8a+ cell) (wild-type C57BL/6 mice (+/+)): 89.9%
pSTAT5 expression (NK1.1+ cell) (wild-type C57BL/6 mice (+/+)): 41.6%
